Substitutions are numbered along the chain they refer to. Numbers in names are those of the source.
B1: VEGF164 (wild type) (ligand)
chain: APTTEGEQKSHEVIKFMDVYQRSYCRPIETLVDIFQEYPDEIEYIFKPSCVPLMRCAGCCNDEALECVPTSESNITMQIMRIKPHQSQHIGEMSFLQHSRCECRPKKDRTKPENHCEPCSERRKHLFVQDPQTCKCSCKNTDSRCKARQLELNERTCRCDKPRR
B2: VEGF164 mutant K26A (ligand, mouse, UniProt Q00731-2 27-190, looked up)
chain: B1 chain with K135A
notes: mature
B3: VEGF120 (ligand)
chain: APTTEGEQKSHEVIKFMDVYQRSYCRPIETLVDIFQEYPDEIEYIFKPSCVPLMRCAGCCNDEALECVPTSESNITMQIMRIKPHQSQHIGEMSFLQHSRCECRPKKDRTKPEKCDKPRR
B4: VEGF164 double mutant R14A/R49A (ligand)
chain: APMAEGGGQNHHEVVKFMDVYQRSYCHPIETLVDIFQEYPDEIEYIFKPSCVPLMRCGGCCNDEGLECVPTEESNITMQIMRIKPHQGQHIGEMSFLQHNKCECRPKKDRARQENPCGPCSERAKHLFVQDPQTCKCSCKNTDSRCKARQLELNERTCACDKPRR
notes: ID No. 23; also called R14/R49A; mutant R14/R49A
B5: recombinant heparin-binding domain of VEGF164 (HBD) (peptide)
chain: ARQENPCGPCSERRKHLFVQDPQTCKCSCKNTDSRCKARQLELNERTCRCDKPRR
notes: also called soluble HBD; VEGF55

Key:
[1] = target: T1, mouse VEGFR-1/Fc chimeric receptor (mouse, UniProt P35969 23-759); assay: competition plate binding assay: cold competitor against 125I-VEGF165 on immobilized VEGFR-1 (Flt-1)/Fc, scintillation counting
T1 construct: Bought from R&D Systems; also called Flt-1; Flt-1 receptor

[2] = target: T2, mouse VEGFR-2/Fc chimeric receptor (mouse, UniProt P35918 20-762); assay: competition plate binding assay: cold competitor against 125I-VEGF165 on immobilized VEGFR-2 (KDR)/Fc, scintillation counting
T2 construct: Bought from R&D Systems; also called KDR; KDR receptor

[3] = target: T3, rat Neuropilin-1/Fc chimeric receptor (rat, UniProt Q9QWJ9 22-854); assay: competition plate binding assay, VEGF164 against 125I-VEGF165 on immobilized rat neuropilin-1/Fc, compared with HBD
[4] = target: T2, mouse VEGFR-2/Fc chimeric receptor; assay: competitive binding of cold competitor against 125I-VEGF165 on immobilized mouse VEGFR-2/Fc, one-site competition fit [panel VEGFR-2]
[5] = target: T3, rat Neuropilin-1/Fc chimeric receptor; assay: competition plate binding assay, cold competitor against 125I-VEGF165 on immobilized rat neuropilin-1/Fc, without heparin
[6] = target: T1, mouse VEGFR-1/Fc chimeric receptor; assay: competitive binding of cold competitor against 125I-VEGF165 on immobilized mouse VEGFR-1/Fc, one-site competition fit [panel VEGFR-1]
[7] = target: T3, rat Neuropilin-1/Fc chimeric receptor; assay: competition plate binding assay: cold competitor against 125I-VEGF165 on immobilized Np-1/Fc, scintillation counting
[8] = target: T3, rat Neuropilin-1/Fc chimeric receptor; assay: competition plate binding assay, HBD against 125I-VEGF165 on immobilized rat neuropilin-1/Fc

T1 sequence (P35969 23-759, stated change not applied): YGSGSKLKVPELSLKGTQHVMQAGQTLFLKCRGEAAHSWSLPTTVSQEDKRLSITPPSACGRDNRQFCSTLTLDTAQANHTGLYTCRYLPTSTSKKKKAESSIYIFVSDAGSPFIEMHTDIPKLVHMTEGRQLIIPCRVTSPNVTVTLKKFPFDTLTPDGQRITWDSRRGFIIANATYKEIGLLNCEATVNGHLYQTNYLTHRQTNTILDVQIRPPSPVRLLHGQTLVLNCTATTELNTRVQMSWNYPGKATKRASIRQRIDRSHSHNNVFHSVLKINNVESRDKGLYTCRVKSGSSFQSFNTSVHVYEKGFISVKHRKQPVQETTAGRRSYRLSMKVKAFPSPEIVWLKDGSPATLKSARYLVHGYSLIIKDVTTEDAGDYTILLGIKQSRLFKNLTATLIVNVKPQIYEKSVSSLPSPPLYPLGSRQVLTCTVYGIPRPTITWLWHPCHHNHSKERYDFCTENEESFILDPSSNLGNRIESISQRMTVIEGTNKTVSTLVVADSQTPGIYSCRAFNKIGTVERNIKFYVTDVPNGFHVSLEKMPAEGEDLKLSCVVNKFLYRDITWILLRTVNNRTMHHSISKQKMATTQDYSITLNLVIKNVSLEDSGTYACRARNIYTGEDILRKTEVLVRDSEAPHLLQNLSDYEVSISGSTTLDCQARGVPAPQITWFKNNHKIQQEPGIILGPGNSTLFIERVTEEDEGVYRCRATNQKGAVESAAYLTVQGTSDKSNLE
T3 sequence (Q9QWJ9 22-854, stated change not applied): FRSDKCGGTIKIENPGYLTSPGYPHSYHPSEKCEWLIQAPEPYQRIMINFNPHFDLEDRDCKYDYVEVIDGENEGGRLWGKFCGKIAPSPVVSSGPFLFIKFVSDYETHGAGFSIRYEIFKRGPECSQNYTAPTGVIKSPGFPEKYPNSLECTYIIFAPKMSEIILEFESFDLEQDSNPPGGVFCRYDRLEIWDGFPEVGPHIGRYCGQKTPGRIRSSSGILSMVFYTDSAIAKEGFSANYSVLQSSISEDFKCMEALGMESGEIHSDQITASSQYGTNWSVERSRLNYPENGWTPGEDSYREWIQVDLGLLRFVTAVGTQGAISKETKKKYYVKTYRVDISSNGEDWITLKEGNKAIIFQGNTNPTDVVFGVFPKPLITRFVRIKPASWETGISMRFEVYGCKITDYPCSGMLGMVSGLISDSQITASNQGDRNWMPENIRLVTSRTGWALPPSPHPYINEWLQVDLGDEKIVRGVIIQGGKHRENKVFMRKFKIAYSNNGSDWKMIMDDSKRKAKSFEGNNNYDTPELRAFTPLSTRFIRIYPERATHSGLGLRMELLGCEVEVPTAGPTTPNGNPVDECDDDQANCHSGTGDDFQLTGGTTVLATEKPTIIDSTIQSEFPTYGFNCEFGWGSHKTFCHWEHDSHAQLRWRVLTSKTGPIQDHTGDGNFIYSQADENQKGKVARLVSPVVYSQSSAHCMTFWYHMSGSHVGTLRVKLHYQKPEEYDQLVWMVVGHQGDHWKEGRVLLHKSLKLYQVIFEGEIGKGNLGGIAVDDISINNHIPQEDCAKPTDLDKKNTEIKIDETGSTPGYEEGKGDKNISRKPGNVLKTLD
T2 sequence (P35918 20-762, stated change not applied): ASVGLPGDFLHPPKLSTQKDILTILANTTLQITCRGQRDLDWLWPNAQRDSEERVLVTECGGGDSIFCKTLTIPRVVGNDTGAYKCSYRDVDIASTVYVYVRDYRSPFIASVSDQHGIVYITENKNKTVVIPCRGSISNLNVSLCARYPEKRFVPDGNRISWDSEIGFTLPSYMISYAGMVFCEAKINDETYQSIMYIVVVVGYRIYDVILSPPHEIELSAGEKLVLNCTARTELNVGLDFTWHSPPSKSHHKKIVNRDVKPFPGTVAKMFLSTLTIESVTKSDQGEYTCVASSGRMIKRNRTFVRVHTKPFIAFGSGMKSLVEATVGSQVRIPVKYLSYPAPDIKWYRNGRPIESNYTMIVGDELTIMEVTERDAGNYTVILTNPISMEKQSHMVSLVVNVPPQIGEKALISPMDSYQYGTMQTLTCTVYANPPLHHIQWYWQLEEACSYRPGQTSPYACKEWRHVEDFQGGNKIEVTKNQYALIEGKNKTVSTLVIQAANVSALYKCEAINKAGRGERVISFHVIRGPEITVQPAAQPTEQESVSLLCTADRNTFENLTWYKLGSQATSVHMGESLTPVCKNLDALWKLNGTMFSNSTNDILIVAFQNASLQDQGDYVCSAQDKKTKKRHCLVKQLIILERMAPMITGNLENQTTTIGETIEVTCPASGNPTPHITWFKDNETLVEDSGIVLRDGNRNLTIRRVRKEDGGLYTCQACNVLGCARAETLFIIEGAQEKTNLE

| Binder | IC50 (read off the curve) [1] [nM] | IC50 (read off the curve) [2] [nM] | IC50 (read off the curve) [7] [nM] | further results |
| --- | --- | --- | --- | --- |
| B1 | ~0.02 | ~0.08 | – | fold stronger competitive binding than HBD [3]: ~230 fold; IC50 (read off the curve) [4]: ~0.2 nM; IC50 [5]: 0.128 nM; IC50 (read off the curve) [6]: ~0.04 nM |
| B2 | – | – | ~0.4 | fold reduction of binding affinity compared to VEGF164 [5]: 2.5 fold |
| B3 | ~0.09 | ~0.08 | – | – |
| B4 | – | – | ~5 | – |
| B5 | – | – | – | IC50 [8]: 28.6 nM |

— patent US20060286636A1 (published 2006)
